Test results reported in PMC4634852.

Biological target: Spindle-F (Spn-F) (UniProt Q9V9Y9)
Test: anti-FLAG co-IP of differently tagged Spn-F
Details: reference: wild-type Spn-F with Ik2; sites S53,S85,S172,S202,S264,S270,S325,S349

binding against the reference: stronger
Substance: Spindle-F (Spn-F) (from UniProt Q9V9Y9) SpnF-8A with Ik2
